In general, pKd refers to −log10 of the Kd, conventionally taken in molar units.

Our source for the Kd values is patent US20200176073A1.

pKd: −log10 of the molar value.

The assay deals with CXCR4 cognate ligand SDF1a (or CCL12) (UniProt P48061). Briefly: ELISA, water-soluble CXCR4 with CCL12 (SDF1a), assay concentrations 50 nM to 10 uM. Background: ELISA stands for enzyme-linked immunosorbent assay.
Sequence of CXCR4 cognate ligand SDF1a (or CCL12) (P48061 22-89 limits assumed): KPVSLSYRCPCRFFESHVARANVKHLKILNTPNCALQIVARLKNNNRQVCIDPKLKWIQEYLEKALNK

The substance “water-soluble CXCR4-QTY protein, produced in E. coli BL21 (DE3) and purified with 1D4 rho-tag monoclonal antibody (receptor)” gave a pKd of 7.10.
